# Source: US9618524B2, “Method, composition, isolation and identification of a plaque particle and related biomarker” (Plaxgen Inc., priority 2012, dated 2017)
# B1: Insulin-like growth factor-binding protein complex (protein)
# chain: ADPGTPGEAEGPACPAACVCSYDDDADELSVFCSSRNLTRLPDGVPGGTQALWLDGNNLSSVPPAAFQNLSSLGFLNLQGGQLGSLEPQALLGLENLCHLHLERNQLRSLALGTFAHTPALASLGLSNNRLSRLEDGLFEGLGSLWDLNLGWNSLAVLPDAAFRGLGSLRELVLAGNRLAYLQPALFSGLAELRELDLSRNALRAIKANVFVQLPRLQKLYLDRNLIAAVAPGAFLGLKALRWLDLSHNRVAGLLEDTFPGLLGLRVLRLSHNAIASLRPRTFKDLHFLEELQLGHNRIRQLAERSFEGLGQLEVLTLDHNQLQEVKAGAFLGLTNVAVMNLSGNCLRNLPEQVFRGLGKLHSLHLEGSCLGRIRPHTFTGLSGLRRLFLKDNGLVGIEEQSLWGLAELLELDLTSNQLTHLPHRLFQGLGKLEYLLLSRNRLAELPADALGPLQRAFWLDVSHNRLEALPNSLLAPLGRLRYLSLRNNSLRTFTPQPPGLERLWLEGNPWDCGCPLKALRDFALQNPSAVPRFVQAICEGDDCQPPAYTYNNITCASPPEVVGLDLRDLSEAHFAPC
# B2: Carboxypeptidase N subunit 2 (protein)
# chain: CPMGCDCFVQEVFCSDEELATVPLDIPPYTKNIIFVETSFTTLETRAFGSNPNLTKVVFLNTQLCQFRPDAFGGLPRLEDLEVTGSSFLNLSTNIFSNLTSLGKLTLNFNMLEALPEGLFQHLAALESLHLQGNQLQALPRRLFQPLTHLKTLNLAQNLLAQLPEELFHPLTSLQTLKLSNNALSGLPQGVFGKLGSLQELFLDSNNISELPPQVFSQLFCLERLWLQRNAITHLPLSIFASLGNLTFLSLQWNMLRVLPAGLFAHTPCLVGLSLTHNQLETVAEGTFAHLSNLRSLMLSYNAITHLPAGIFRDLEELVKLYLGSNNLTALHPALFQNLSKLELLSLSKNQLTTLPEGIFDTNYNLFNLALHGNPWQCDCHLAYLFNWLQQYTDRLLNIQTYCAGPAYLKGQVVPALNEKQLVCPVTRDHLGFQVTWPDESKAGGSWDLAVQERAARSQCTYSNPEGTVVLACDQAQCRWLNVQLSPQQGSLGLQYNASQEWDLRSSCGSLRLTVSIEARAAGP
# B3: Leucine-rich alpha-2-glycoprotein (protein)
# chain: VTLSPKDCQVFRSDHGSSISCQPPAEIPGYLPADTVHLAVEFFNLTHLPANLLQGASKLQELHLSSNGLESLSPEFLRPVPQLRVLDLTRNALTGLPPGLFQASATLDTLVLKENQLEVLEVSWLHGLKALGHLDLSGNRLRKLPPGLLANFTLLRTLDLGENQLETLPPDLLRGPLQLERLHLEGNKLQVLGKDLLLPQPDLRYLFLNGNKLARVAAGAFQGLRQLDMLDLSNNSLASVPEGLWASLGQPNWDMRDGFDISGNPWICDQNLSDLYRWLQAQKDKMFSQNDTRCAGPEAVKGQTLLAVAKSQ
# B4: Serum amyloid A-4 protein (protein)
# chain: ESWRSFFKEALQGVGDMGRAYWDIMISNHQNSNRYLYARGNYDAAQRGPGGVWAAKLISRSRVYLQGLIDCYLFGNSSTVLEDSKSNEKAEEWGRSGKDPDRFRPDGLPKKY
# B5: Complement C2 (protein)
# chain: APSCPQNVNISGGTFTLSHGWAPGSLLTYSCPQGLYPSPASRLCKSSGQWQTPGATRSLSKAVCKPVRCPAPVSFENGIYTPRLGSYPVGGNVSFECEDGFILRGSPVRQCRPNGMWDGETAVCDNGAGHCPNPGISLGAVRTGFRFGHGDKVRYRCSSNLVLTGSSERECQGNGVWSGTEPICRQPYSYDFPEDVAPALGTSFSHMLGATNPTQKTKESLGRKIQIQRSGHLNLYLLLDCSQSVSENDFLIFKESASLMVDRIFSFEINVSVAIITFASEPKVLMSVLNDNSRDMTEVISSLENANYKDHENGTGTNTYAALNSVYLMMNNQMRLLGMETMAWQEIRHAIILLTDGKSNMGGSPKTAVDHIREILNINQKRNDYLDIYAIGVGKLDVDWRELNELGSKKDGERHAFILQDTKALHQVFEHMLDVSKLTDTICGVGNMSANASDQERTPWHVTIKPKSQETCRGALISDQWVLTAAHCFRDGNDHSLWRVNVGDPKSQWGKEFLIEKAVISPGFDVFAKKNQGILEFYGDDIALLKLAQKVKMSTHARPICLPCTMEANLALRRPQGSTCRDHENELLNKQSVPAHFVALNGSKLNINLKMGVEWTSCAEVVSQEKTMFPNLTDVREVVTDQFLCSGTQEDESPCKGESGGAVFLERRFRFFQVGLVSWGLYNPCLGSADKNSRKRAPRSKVPPPRDFHINLFRMQPWLRQHLGDVLNFLPL
# B6: Isoform 2 of Apolipoprotein L1 (protein)
# chain: EEAGARVQQNVPSGTDTGDPQSKPLGDWAAGTMDPESSIFIEDAIKYFKEKVSTQNLLLLLTDNEAWNGFVAAAELPRNEADELRKALDNLARQMIMKDKNWHDKGQQYRNWFLKEFPRLKSELEDNIRRLRALADGVQKVHKGTTIANVVSGSLSISSGILTLVGMGLAPFTEGGSLVLLEPGMELGITAALTGITSSTMDYGKKWWTQAQAHDLVIKSLDKLKEVREFLGENISNFLSLAGNTYQLTRGIGKDIRALRRARANLQSVPHASASRPRVTEPISAESGEQVERVNEPSILEMSRGVKLTDVAPVSFFLVLDVVYLVYESKHLHEGAKSETAEELKKVAQELEEKLNILNNNYKILQADQEL
# Test system: Low density cholesterol (Chl small) plaque particles
# Assay: Mass spectroscopy proteomics, semi-quantitative binding affinity of serum proteins (plaqueproteome, Table 2)
# Design: species or system human
# Details: higher number = stronger affinity
# In short: (§1)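 Serum or plasma from atherosclerotic subjects, as 50% serum, was incubated with 30 μg cholesterol aggregates for 1 h at 37 °C. High- and low-density particles were then flow-sorted, trypsin-digested and analysed by MS/MS. Proteins were identified by Sequest search against human UniProt and validated with Protein Prophet.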
row,Molecule,Semi-quantitative analysis of proteins binding to different plaque particles: Chl small
1,B1,1
2,B2,1
3,B3,3
4,B4,1
5,B5,1
6,B6,1

# Test system: High Density cholesterol (Chl Large) plaque particles
# Assay: as above
# Design: species or system human
# Details: higher number = stronger affinity
# In short: as §1
row,Molecule,Semi-quantitative analysis of proteins binding to different plaque particles: Chl Large
1,B1,1
2,B2,0
3,B3,2
4,B4,1
5,B5,0
6,B6,1

# Biological target: T1, alpha-synuclein plaque particles (Homo sapiens, UniProt P37840)
# T1 construct: 140 amino acids polypeptide
# Assay: as above
# Details: higher number = stronger affinity
# In short: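 AD-subject plasma or serum (800 μL of 50%) mixed with 30 μg preformed alpha-synuclein aggregates for 1 h at 37 °C; Thioflavin S-positive particles isolated by flow sorting. After reduction, acrylamide alkylation and overnight tryptic digestion, serum proteins identified by MS/MS with Sequest and Scaffold.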
row,Molecule,Semi-quantitative analysis of proteins binding to different plaque particles: Synuclein
1,B1,0
2,B2,2
3,B3,2
4,B4,1
5,B5,0
6,B6,0

# Biological target: T2, Abeta-42 plaque particles (Homo sapiens, UniProt P05067)
# T2 construct: Abeta 1-42
# Assay: as above
# Details: higher number = stronger affinity
# In short: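 AD patient serum or plasma (50% in PBS) was incubated with Abeta-42 aggregates (30 μg) for 1 h at 37 °C, then stained with Thioflavin S for 30 min. Labeled particles were FACS-sorted, trypsin/Lys-C digested overnight and analyzed by MS/MS. Sequest searched human UniProt; Scaffold/Protein Prophet validated the identifications.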
row,Molecule,Semi-quantitative analysis of proteins binding to different plaque particles: Abeta-42
1,B1,0
2,B2,0
3,B3,2
4,B4,2
5,B5,0
6,B6,0

# Test system: Tau plaque particles
# Assay: as above
# Design: species or system human
# Details: higher number = stronger affinity
# In short: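 Serum or plasma proteins captured on Thioflavin S-labelled Tau plaque particles (Tau-74, Tau-275 oligomers preformed in PBS at 37° C for 2 h; 1 h co-incubation at 37° C) were isolated by FACS sorting, then tryptically digested and identified by MS/MS (Sequest, human UniProt, strict trypsin).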
row,Molecule,Semi-quantitative analysis of proteins binding to different plaque particles: Tau
1,B1,1
2,B2,1
3,B3,1
4,B4,4
5,B5,0
6,B6,2
